The source of these data is paper PMC13391367.

This series addresses UAP56 (UniProt Q13838 1-428). Nature of the series: pull-down (NeutrAvidin beads, RNA unclamping assay); ATP, 2 mM Mg2+; clamped UAP56-ADP-Pi-RNA complex, no release factor; RNA unclamping: 20 mM HEPES pH 7.9, 40 mM KCl, 2 mM MgCl2, 5% glycerol, 0.1% Igepal CA-630, 1 mM ATP at loading, room temperature, 500 mM KCl wash; cryo-EM: 25. The settings on record: protein: recombinant; tags: 10xHis-3C (N-term); single strand.

UAP56, sequence (Q13838 whole entry): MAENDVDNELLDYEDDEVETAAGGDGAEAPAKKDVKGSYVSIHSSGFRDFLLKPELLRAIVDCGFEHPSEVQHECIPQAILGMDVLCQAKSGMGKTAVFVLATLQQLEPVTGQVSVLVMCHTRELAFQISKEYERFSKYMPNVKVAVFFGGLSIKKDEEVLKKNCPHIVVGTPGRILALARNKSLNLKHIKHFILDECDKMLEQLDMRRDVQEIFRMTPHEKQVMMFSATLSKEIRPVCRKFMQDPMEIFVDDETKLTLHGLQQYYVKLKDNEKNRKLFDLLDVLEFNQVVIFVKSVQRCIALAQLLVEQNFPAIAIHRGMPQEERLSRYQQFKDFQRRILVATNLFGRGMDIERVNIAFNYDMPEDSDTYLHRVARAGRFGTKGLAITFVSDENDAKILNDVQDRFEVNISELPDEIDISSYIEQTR

B1: biotinylated 15U RNA (ssRNA)
RNA: UUUUUUUUUUUUUUU
Take B1: the binding result is given as “binds”.
